US20180112001A1 (Regeneron, published 2018)
Like-named read-outs stand apart in the source and are kept apart here.

T1: soluble monomeric human MUC16, truncated format encompassing the last five SEA domains of Mucin-16 (human)
T1 construct: also called hMUC16.mmh; MUC16 "nub"
T1 chain: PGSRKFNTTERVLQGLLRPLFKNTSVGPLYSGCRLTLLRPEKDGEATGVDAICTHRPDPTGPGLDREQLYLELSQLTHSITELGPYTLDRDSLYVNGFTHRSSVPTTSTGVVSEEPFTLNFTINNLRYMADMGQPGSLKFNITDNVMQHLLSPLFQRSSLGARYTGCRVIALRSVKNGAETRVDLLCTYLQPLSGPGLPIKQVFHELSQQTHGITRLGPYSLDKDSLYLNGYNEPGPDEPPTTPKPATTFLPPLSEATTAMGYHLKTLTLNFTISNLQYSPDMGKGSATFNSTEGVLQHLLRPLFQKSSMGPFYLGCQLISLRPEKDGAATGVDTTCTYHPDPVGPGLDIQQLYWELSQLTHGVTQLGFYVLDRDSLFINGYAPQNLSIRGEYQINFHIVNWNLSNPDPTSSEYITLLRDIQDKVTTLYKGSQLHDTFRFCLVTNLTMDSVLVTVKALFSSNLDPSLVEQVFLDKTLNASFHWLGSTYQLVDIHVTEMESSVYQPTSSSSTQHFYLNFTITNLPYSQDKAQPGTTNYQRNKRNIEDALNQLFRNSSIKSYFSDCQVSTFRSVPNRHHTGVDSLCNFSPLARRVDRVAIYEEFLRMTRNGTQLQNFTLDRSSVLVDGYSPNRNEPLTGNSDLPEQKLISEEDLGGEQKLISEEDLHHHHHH


Columns and labels:
[1] = target: T2, human MUC16 (mucin 16), endogenously expressed on cells (human); assay: MSD electrochemiluminescence cell binding; RLU ratio OVCAR-3/SK-OV-3; Ab 16.7 nM
T2 construct: Endogenous MUC16 on OVCAR-3 / OVCAR3-Luc / PEO-1 / HPAC cells; also called hMUC16

[2] = target: T2, human MUC16 (mucin 16), endogenously …; assay: MSD electrochemiluminescence cell binding; RLU ratio OVCAR-3/SK-OV-3; Ab 1.9 nM
[3] = target: T1, soluble monomeric human MUC16, …; assay: SPR Biacore, antibody captured, soluble monomeric hMUC16.mmh injected, 25C
[4] = target: T1, soluble monomeric human MUC16, …; assay: as above

Binder	Ratio: anti-MUC16 Binding OVCAR-3/SK-OV-3 [1] [ratio]	Ratio: anti-MUC16 Binding OVCAR-3/SK-OV-3 [2] [ratio]	Kd [3] [nM]	koff [3] [s⁻¹]	kon [3] [M⁻¹ s⁻¹]	t ½ [3] [min]	Kd [4] [nM]	koff [4] [s⁻¹]	kon [4] [M⁻¹ s⁻¹]	t1/2 [4] [min]	binding result [3]
H1H8770P (antibody, human IgG1, V domains shown, Human IgG1 (H1H)) VH: QVQLVESGGGVVQPGRSLRLSCAASGFTFSDHGMHWVRQAPGKGLEWVAVISYHGSNKHYADSVKGRFTISRDNSKNALYLQMNSLRPEDTAMYYCAKDGYDFWNGYSLFDYWGQGTLVTVSS VL: DIQMTQSPSSLSASVGDRVTITCRASQSISNYLNWYQQKPGKAPKLLIYTASNLLSGVPSRFSGSGSGTDFTLTISSLQPEDFATYYCQQSYSTPPITFGQGTKLEIK	3	9	–	–	–	–	1.25	0.000308	247000	38	–
H1H8783P (antibody, human IgG1, V domains shown, Human IgG1 (H1H)) VH: QVQLVESGGGVVQPGRSLRLSCAASGFTFSDHAMHWVRQAPGKGLEWVAVISYHGTDKQYGDSVKGRFTISRDNSKNALYLQMNSLRPEDTAMYYCAKDGYDFWNAYSLFDYWGQGTLVTVSS VL: DIQMTQSPSSLSASVGDRVTITCRASQSISNYLNWYQQKPGKAPKLLIYTASSLLSGVPSRFSGSGSGTDFTLTISSLQPEDFATYYCQQSYSTPPITFGQGTRLEIK	4	11	–	–	–	–	0.614	0.000107	174000	108	–
H1H9528N (antibody, human IgG1, V domains shown, Human IgG1 Fc version) VH: QMQLQESGPGLVKPSETLSLTCTVSGGSISSYYWNWIRQPPGKGLEWIGYIYYSGNNFNPSLKSRVTISVDTSKNQFSLKLSSVTAADTAVYYCARAFHWNYEFDYWGQGTLVTVSS VL: EIVLTQSPGTLSLSPGERATLSCRASQSVSNNYLAWYQQKPGQAPRLLLYGASSRTTDIPDRFSGSGSGTDFTLTISRLEPEDFAVYYCQQYDNSPLTFGGGTKVEIR	18	41	–	–	–	–	–	–	–	–	–
H1H9525N (antibody, human IgG1, V domains shown, Human IgG1 Fc version) VH: QVQLQQWGAGLLKPSETLSLTCAVYGGSFSGYYWSWIRQPPGKGLEWIGEINHSGKTTYSPSLKSRVTISVDTSKSQFSLKLSSVTAADTAVYYCARQGLNYAIFDYWGQGTLVTVSS VL: not shown	21	4	–	–	–	–	–	–	–	–	–
H1H9524N (antibody, human IgG1, V domains shown, Human IgG1 Fc version) VH: QVQLQQWGAGLLKPSETLSLTCAVYGGSFSDYYWSWIRQPPGKGLEWIGEINHRGKTNYNPSLKSRVSISVDPSKNQFSLKLSSVTAADTAVYYCARQGWNYAIFDYWGQGILVPVSS VL: not shown	48	20	–	–	–	–	–	–	–	–	–
H1H8790P (antibody, human IgG1, V domains shown, Human IgG1 (H1H)) VH: EVQLVESGGGLVQPGGSLRLSCEASGFTFSNYAMSWVRQAPGKGLEWVSGMSGSGTYPYYADSVKGRFTISRDNSKNMLYLQMNSLRVKDTAVYYCAKDGVDTAMILDTFDLWGQGTMVTVSS VL: not shown	3	8	–	–	–	–	7.53	0.000761	101000	15	–
H1H8755P (antibody, human IgG1, V domains shown, Human IgG1 (H1H)) VH: EVQLVESGGGLVQPGRSLRLSCAASGFTFNDYAMHWVRQSPGKGLEWVSGIDWNGGSIDYADSVKGRFTISRDTAKNSLYLQMNSLKVEDTALYYCAKDIGHWNYIGGMDVWGQGTTVTVSS VL: DIQMTQSPSSLSASVGDRVTITCRASQSINIYLNWYQQKPGKAPKFLIYAASSLQTGVPSRFSGSGSGTDFTLTISSLEPEDFATYYCQHSYSTPPITFGQGTRLEIK	5	13	–	–	–	–	0.286	0.000149	522000	77	–
H1H8794P (antibody, V domains shown, Human IgG1 (H1H)) VH: QVQLVESGGGLVKPGGSLRLSCAASGFTFRDYSMSWIRQAPGKGLEWVSYVTFFNSAIYYADSVKGRFTISRDNAKNSLYLQMNSLRAEDTAVYYCAREREPIVGGFDYWGQGTLVTVSS VL: DIQMTQSPSSLSASVGDRVTITCRASQSINSYLNWYQQKPGKAPKLLIYAASSLQGGVPSRFSGGGSGTDFTLTITSLQPEDFATFYCQQSYSSPPITFGQGTRLEIK	3	8	–	–	–	–	0.771	0.000279	362000	41	–

The remaining lines, values ahead:

Ratio: anti-MUC16 Binding OVCAR-3/SK-OV-3 [1] [ratio]	Ratio: anti-MUC16 Binding OVCAR-3/SK-OV-3 [2] [ratio]	Kd [3] [nM]	koff [3] [s⁻¹]	kon [3] [M⁻¹ s⁻¹]	t ½ [3] [min]	Kd [4] [nM]	koff [4] [s⁻¹]	kon [4] [M⁻¹ s⁻¹]	t1/2 [4] [min]	binding result [3]	Binder
26	89	–	–	–	–	–	–	–	–	–	H2M9538N (antibody, V domains shown) VH: QVQLQESGPGLVKPSETLSLTCTVSGGSISSYYWSWIRQPPGKGLEWIGYIYYSGSTNYNPSLKSRVTISVDTSKNQFSLKLSSVTAADTAVYYCARKKLVFDYWGQGTLVTVSS VL: not shown
13	12	–	–	–	–	–	–	–	–	–	H1H9538N (antibody, V domains shown) VH: QVQLQESGPGLVKPSETLSLTCTVSGGSISSYYWSWIRQPPGKGLEWIGYIYYSGSTNYNPSLKSRVTISVDTSKNQFSLKLSSVTAADTAVYYCARKKLVFDYWGQGTLVTVSS VL: not shown
5	30	4.27	0.000218	51000	53	–	–	–	–	–	H2M7135N (antibody, mouse IgG2, V domains shown, Mouse IgG2 constant region (H2M)) VH: EVQLVESGGGLVQAGGSLRLSCAASGFTFSYHEMNWVRQAPGKGLEWVSYIGSRGTTKHYADPVKGRFTISRDNAKNSLYLQMNSLRAEDTAVYYCASEVGSILGYSMDVWGQGTTVTVSS VL: DIQMTQSPSSLSASVGDRVTITCRASQSVSRYLNWCQQKPGKAPKLLTYAASSLQSGVPSRFSGSGSGTDFTLTISSLQPEDFAAYFCQQSYSTPPITFGQGTRLEIK
120	153	–	–	–	–	–	–	–	–	no binding	H1M9528N (antibody, mouse IgG1, V domains shown, Mouse IgG1 constant region (H1M)) VH: QMQLQESGPGLVKPSETLSLTCTVSGGSISSYYWNWIRQPPGKGLEWIGYIYYSGNNFNPSLKSRVTISVDTSKNQFSLKLSSVTAADTAVYYCARAFHWNYEFDYWGQGTLVTVSS VL: EIVLTQSPGTLSLSPGERATLSCRASQSVSNNYLAWYQQKPGQAPRLLLYGASSRTTDIPDRFSGSGSGTDFTLTISRLEPEDFAVYYCQQYDNSPLTFGGGTKVEIR
99	143	–	–	–	–	–	–	–	–	no binding	H3M9529N (antibody, mouse IgG3, V domains shown, Mouse IgG3 constant region (H3M)) VH: QVQLQQWGAGLLKPSETLSLTCAVYGGSFSGFYWSWIRQPPGKGLEWIGEINHSGSAKYNPSLKNRVIISIDTSKNQFSLKLDSVTAADTAVYNCARQGWNFAIFDYWGQGTLVDVSS VL: DIVMTQSPDSLAVSLGGRATINCKSSQSVLHSSYNKDHLAWYQQRPGQPPKLLIYWASTRESGVPDRFSGSGSGTDFTLTISSLQAEDVAVYYCQQYNILPPTFGQGTRVEIK
74	109	–	–	–	–	–	–	–	–	–	H1H9529N (antibody, human IgG1, V domains shown, Human IgG1 Fc version) VH: QVQLQQWGAGLLKPSETLSLTCAVYGGSFSGFYWSWIRQPPGKGLEWIGEINHSGSAKYNPSLKNRVIISIDTSKNQFSLKLDSVTAADTAVYNCARQGWNFAIFDYWGQGTLVDVSS VL: DIVMTQSPDSLAVSLGGRATINCKSSQSVLHSSYNKDHLAWYQQRPGQPPKLLIYWASTRESGVPDRFSGSGSGTDFTLTISSLQAEDVAVYYCQQYNILPPTFGQGTRVEIK
57	81	–	–	–	–	–	–	–	–	no binding	H3M9524N (antibody, mouse IgG3, V domains shown, Mouse IgG3 constant region (H3M)) VH: QVQLQQWGAGLLKPSETLSLTCAVYGGSFSDYYWSWIRQPPGKGLEWIGEINHRGKTNYNPSLKSRVSISVDPSKNQFSLKLSSVTAADTAVYYCARQGWNYAIFDYWGQGILVPVSS VL: not shown
51	137	–	–	–	–	–	–	–	–	no binding	H3M9525N (antibody, mouse IgG3, V domains shown, Mouse IgG3 constant region (H3M)) VH: QVQLQQWGAGLLKPSETLSLTCAVYGGSFSGYYWSWIRQPPGKGLEWIGEINHSGKTTYSPSLKSRVTISVDTSKSQFSLKLSSVTAADTAVYYCARQGLNYAIFDYWGQGTLVTVSS VL: not shown
29	77	1.72	9.09e-05	53000	127	–	–	–	–	–	H1M7137N (antibody, mouse IgG1, V domains shown, Mouse IgG1 constant region (H1M)) VH: QVQLQESGPGLVKPSETLSLTCTVSGGAINTYYWSWIRQPPGKGLEWIGYIYYRGNTNYNPSLRSRVTISVDTSKNQFFLKLRSVTVADSAVYFCARGWNYRAEYFQHWGQGTVVTVSS VL: not shown
